The source of these data is US20240002531A1 (ONO PHARMACEUTICAL, published 2024).

To fix the notation:
T1: Y610A peptide (HER2 603-622 with Y610A) (human)
T1 peptide: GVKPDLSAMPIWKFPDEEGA

T2: E620A peptide (HER2 603-622 with E620A) (human)
T2 peptide: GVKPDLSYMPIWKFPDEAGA

T3: D607A peptide (HER2 603-622 with D607A) (human)
T3 peptide: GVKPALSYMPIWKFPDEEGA

T4: D618A peptide (HER2 603-622 with D618A) (human)
T4 peptide: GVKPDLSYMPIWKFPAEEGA

T5: G603A peptide (HER2 603-622 with G603A) (human)
T5 peptide: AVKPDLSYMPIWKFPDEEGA

T6: G621A peptide (HER2 603-622 with G621A) (human)
T6 peptide: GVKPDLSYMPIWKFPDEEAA

T7: W614A peptide (HER2 603-622 with W614A) (human)
T7 peptide: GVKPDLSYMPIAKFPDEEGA

T8: HER2_604-622C peptide (NH2-VKPDLSYMPIWKFPDEEGAC-COOH) (human)
T8 construct: KLH was added for immunisation, the peptide itself was coated in the screening ELISA
T8 peptide: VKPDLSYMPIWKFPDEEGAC

T9: P617A peptide (HER2 603-622 with P617A) (human)
T9 peptide: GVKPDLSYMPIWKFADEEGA

T10: I613A peptide (HER2 603-622 with I613A) (human)
T10 construct: also called 1613A
T10 peptide: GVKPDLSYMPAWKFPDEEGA

T11: HER2 peptide p603-622 (amino acids 603 to 622 of human HER2) (human)
T11 construct: Synthetic peptide; also called wild-type HER2 peptide
T11 peptide: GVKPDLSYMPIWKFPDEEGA

T12: F616A peptide (HER2 603-622 with F616A) (human)
T12 peptide: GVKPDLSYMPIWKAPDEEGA

T13: P606A peptide (HER2 603-622 with P606A) (human)
T13 peptide: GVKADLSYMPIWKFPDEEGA

T14: M611A peptide (HER2 603-622 with M611A) (human)
T14 peptide: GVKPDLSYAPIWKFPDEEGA

T15: S609A peptide (HER2 603-622 with S609A) (human)
T15 peptide: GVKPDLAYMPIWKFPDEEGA

T16: V604A peptide (HER2 603-622 with V604A) (human)
T16 peptide: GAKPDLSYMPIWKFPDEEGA

T17: L608A peptide (HER2 603-622 with L608A) (human)
T17 peptide: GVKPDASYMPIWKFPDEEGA

T18: P612A peptide (HER2 603-622 with P612A) (human)
T18 peptide: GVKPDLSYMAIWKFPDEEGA

T19: K615A peptide (HER2 603-622 with K615A) (human)
T19 peptide: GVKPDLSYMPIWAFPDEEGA

T20: E619A peptide (HER2 603-622 with E619A) (human)
T20 peptide: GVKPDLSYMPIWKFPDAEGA

T21: K605A peptide (HER2 603-622 with K605A) (human)
T21 peptide: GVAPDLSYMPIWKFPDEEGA

B1: H2Mab-283 antibody (antibody, mouse IgG1, kappa, V domains shown)
VH: EVQLVESGGGLVQPGGSLKLSCAASGFTFSSYGMSWVRQTPDKRLELVATINSNGGSTFYPDSVKGRFTISRDNAKNTLYLHMSSLKSEDTAIYYCVSPGSWFPYWGRGTLVTVSA
VL: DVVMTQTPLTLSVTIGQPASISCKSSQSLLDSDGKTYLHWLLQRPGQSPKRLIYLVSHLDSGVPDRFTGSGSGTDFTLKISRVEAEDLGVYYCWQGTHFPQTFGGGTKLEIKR
B2: H2Mab-285 antibody (antibody, mouse IgG3, V domains shown)
VH: EVQLVESGGGLVQPGGSLKLSCAASGFTFSNYGIFWVRQTPDKRLELVATVKSNGGSTYYPDSVKGRFTISRDNAKKTLYLQMSSLKSEDTAMYYCAREGGDYWGQGTSVTVSS
VL: DIVMTQSHKFMSTSVGDRVSITCKASQDVGTAVAWYQQKPGQSPKLLIYWTSTRHTGVPDRFTGSGSGTDFTLTIRNVQSEDLADYFCQQYNRNPLTFGAGTRLELKR
B3: H2Mab-284 antibody (antibody, mouse IgG1, kappa, V domains shown)
VH: QVTLKESGPGILQPSQTLSLTCSFSGFSLSTSGVGVGWIRQPSGKGLEWLAHIWWDDDKNYNPALKSRLTISKDTSTNQGFLKIASVDTADTATYFCARIEGQKGFAYWGQGTLVTVSA
VL: DIVMSQSPSSLAVSVGEKVTMSCKSSQSLLYSRNQKNYLAWYQQKPGQSPKLLIYWASTRESGVPDRFTGSGSGTDFTLTISSVKAEDLAVYYCQQYYSSPYTFGGGTKLEIKR

The first assay concerns the target T1, Y610A peptide (HER2 603-622 with Y610A). Put plainly: peptide ELISA, OD 655 nm. (In general: An ELISA detects its analyte on a solid surface through an enzyme-linked reagent.)
Turning to B1, the binding result is on record as “binds”.

As for B2, the binding result is listed as “binds”.

For B3, the binding result is listed as “binds”.

The next assay deals with T2, E620A peptide (HER2 603-622 with E620A). Description: peptide ELISA, OD 655 nm.
On to B1, for which the binding result is reported as “binds”.

With B2, the binding result was “binds”.

As to B3, the binding result is listed as “binds”.

In the next assay the target is T3, D607A peptide (HER2 603-622 with D607A). Put plainly: peptide ELISA, OD 655 nm.
On to B1, for which the binding result is recorded as “binds”.

With B2, the binding result was “binds”.

Take B3: the binding result is reported as “binds”.

Another assay concerns the target T4, D618A peptide (HER2 603-622 with D618A). Description: peptide ELISA, OD 655 nm.
B1: the binding result is on record as “binds”.

For the molecule B2, the binding result is “binds”.

As for B3, the binding result is “binds”.

The target in the next assay is T5, G603A peptide (HER2 603-622 with G603A). Description: peptide ELISA, OD 655 nm.
As for B1, the binding result was “binds”.

For B2, the binding result was “binds”.

On to B3, for which the binding result was “binds”.

The next assay deals with T6, G621A peptide (HER2 603-622 with G621A). Description: peptide ELISA, OD 655 nm.
For B1, the binding result is “binds”.

For the molecule B2, the binding result is “binds”.

Regarding B3, the binding result is “binds”.

The next assay concerns the target T7, W614A peptide (HER2 603-622 with W614A). Put plainly: peptide ELISA, OD 655 nm.
For the molecule B1, the binding result is recorded as “no binding (tested: 10 ug/ml)”.

For B2, the binding result is recorded as “binds”.

For the molecule B3, the binding result was “binds”.

For the next assay, the target named is T8, HER2_604-622C peptide …. Put plainly: peptide ELISA, OD 655 nm.
Take B1: the binding result is “binds”.

Regarding B2, the binding result is recorded as “binds”.

In the case of B3, the binding result is given as “binds”.

Another assay addresses T9, P617A peptide (HER2 603-622 with P617A). Put plainly: peptide ELISA, OD 655 nm.
On to B1, for which the binding result is on record as “binds”.

For the molecule B2, the binding result is listed as “binds”.

As for B3, the binding result was “binds”.

The target in another assay is T10, I613A peptide (HER2 603-622 with I613A). Description: peptide ELISA, OD 655 nm.
On to B1, for which the binding result was “binds”.

Take B2: the binding result is given as “binds”.

B3: the binding result is reported as “binds”.

The target in a further assay is T11, HER2 peptide p603-622 (amino acids 603 …). Put plainly: peptide ELISA, OD 655 nm.
On to B1, for which the binding result was “binds”.

As to B2, the binding result is recorded as “binds”.

With B3, the binding result is on record as “binds”.

Another assay deals with T12, F616A peptide (HER2 603-622 with F616A). Description: peptide ELISA, OD 655 nm.
On to B1, for which the binding result is given as “binds”.

With B2, the binding result was “binds”.

Turning to B3, the binding result is listed as “no binding (tested: 10 ug/ml)”.

The next assay concerns the target T13, P606A peptide (HER2 603-622 with P606A). Put plainly: peptide ELISA, OD 655 nm.
As to B1, the binding result is “binds”.

Take B2: the binding result was “binds”.

With B3, the binding result is “binds”.

The target of the next assay is T14, M611A peptide (HER2 603-622 with M611A). Put plainly: peptide ELISA, OD 655 nm.
On to B1, for which the binding result is reported as “binds”.

Take B2: the binding result is given as “binds”.

Consider B3, for which the binding result is on record as “binds”.

Another assay concerns the target T15, S609A peptide (HER2 603-622 with S609A). Description: peptide ELISA, OD 655 nm.
With B1, the binding result is reported as “binds”.

For B2, the binding result is given as “binds”.

Turning to B3, the binding result is “binds”.

The next assay addresses T16, V604A peptide (HER2 603-622 with V604A). Put plainly: peptide ELISA, OD 655 nm.
For B1, the binding result is listed as “binds”.

On to B2, for which the binding result is “binds”.

With B3, the binding result is listed as “binds”.

For a further assay, the target named is T17, L608A peptide (HER2 603-622 with L608A). Put plainly: peptide ELISA, OD 655 nm.
B1: the binding result is listed as “binds”.

Consider B2, for which the binding result was “binds”.

Turning to B3, the binding result was “binds”.

The target in another assay is T18, P612A peptide (HER2 603-622 with P612A). Description: peptide ELISA, OD 655 nm.
Consider B1, for which the binding result is “binds”.

With B2, the binding result was “binds”.

For the molecule B3, the binding result is on record as “binds”.

The target of a further assay is T19, K615A peptide (HER2 603-622 with K615A). Put plainly: peptide ELISA, OD 655 nm.
On to B1, for which the binding result is reported as “binds”.

Turning to B2, the binding result is reported as “binds”.

With B3, the binding result is reported as “no binding (tested: 10 ug/ml)”.

The target of a further assay is T20, E619A peptide (HER2 603-622 with E619A). Description: peptide ELISA, OD 655 nm.
Consider B1, for which the binding result is listed as “binds”.

Turning to B2, the binding result is “binds”.

In the case of B3, the binding result is reported as “binds”.

The next assay has as its target T21, K605A peptide (HER2 603-622 with K605A). Put plainly: peptide ELISA, OD 655 nm.
In the case of B1, the binding result is “binds”.

On to B2, for which the binding result was “binds”.

As for B3, the binding result is “binds”.
